Measurements reported in US6969760 (ST JUDE CHILDREN S RESEARCH HOSPITAL, dated 2005).

Legend:
Assay in all cases: pull-down from DA3(EPOR) cell extracts on GST-EPOR cytoplasmic domain beads, immunoblot
c-fes = c-fes (UniProt P16879 1-822)
Method: (§1) The fusion proteins were purified by affinity binding to glutathione-sepharose beads and the proteins, on affinity beads, were incubated with extracts of unstimulated or EPO stimulated DA3(EPOR) cells. The bound proteins were recovered from the beads, resolved on SDS-PAGE and the gels blotted to nitrocellulose. The blots were subsequently probed with antisera against various tyrosine kinases.

murine Tec = molecular target: T1, murine Tec (murine, UniProt P24604 1-630, limits assumed)
T1 sequence (looked up): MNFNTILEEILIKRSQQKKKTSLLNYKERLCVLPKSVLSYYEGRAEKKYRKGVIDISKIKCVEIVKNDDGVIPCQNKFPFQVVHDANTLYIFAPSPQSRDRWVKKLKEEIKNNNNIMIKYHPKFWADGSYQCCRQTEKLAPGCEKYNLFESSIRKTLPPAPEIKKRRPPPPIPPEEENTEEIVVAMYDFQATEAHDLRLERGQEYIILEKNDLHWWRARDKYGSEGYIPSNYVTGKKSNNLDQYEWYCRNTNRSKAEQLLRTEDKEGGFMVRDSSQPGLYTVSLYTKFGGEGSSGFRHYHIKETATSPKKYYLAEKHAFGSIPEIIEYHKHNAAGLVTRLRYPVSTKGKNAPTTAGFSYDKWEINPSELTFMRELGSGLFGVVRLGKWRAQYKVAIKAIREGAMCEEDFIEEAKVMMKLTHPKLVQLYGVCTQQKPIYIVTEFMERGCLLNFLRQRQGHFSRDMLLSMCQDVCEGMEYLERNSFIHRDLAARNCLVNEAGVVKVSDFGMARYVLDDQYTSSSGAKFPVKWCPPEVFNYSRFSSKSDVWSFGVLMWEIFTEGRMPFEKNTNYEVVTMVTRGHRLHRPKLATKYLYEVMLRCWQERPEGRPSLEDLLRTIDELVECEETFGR
Method: as §1

lyn = molecular target: T2, lyn (UniProt P25911 2-512, limits assumed)
T2 construct: also called lyn kinase
T2 sequence (P25911 2-512 limits assumed): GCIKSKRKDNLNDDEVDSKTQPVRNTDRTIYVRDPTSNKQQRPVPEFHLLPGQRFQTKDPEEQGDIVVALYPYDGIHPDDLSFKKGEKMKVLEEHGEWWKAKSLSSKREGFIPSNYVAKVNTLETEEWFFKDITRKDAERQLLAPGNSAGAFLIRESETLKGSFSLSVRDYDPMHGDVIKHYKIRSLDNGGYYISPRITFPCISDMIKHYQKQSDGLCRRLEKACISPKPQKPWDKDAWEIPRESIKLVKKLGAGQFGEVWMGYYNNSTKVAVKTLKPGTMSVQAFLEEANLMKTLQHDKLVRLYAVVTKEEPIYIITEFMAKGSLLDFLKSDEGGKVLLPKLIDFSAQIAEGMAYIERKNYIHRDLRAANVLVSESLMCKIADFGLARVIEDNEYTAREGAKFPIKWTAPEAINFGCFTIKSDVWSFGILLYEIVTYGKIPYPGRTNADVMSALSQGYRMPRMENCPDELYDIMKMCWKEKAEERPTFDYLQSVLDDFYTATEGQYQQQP
Method: as §1

Measured: binding result

Sequence of c-fes (P16879 whole entry, the tested form may be a part): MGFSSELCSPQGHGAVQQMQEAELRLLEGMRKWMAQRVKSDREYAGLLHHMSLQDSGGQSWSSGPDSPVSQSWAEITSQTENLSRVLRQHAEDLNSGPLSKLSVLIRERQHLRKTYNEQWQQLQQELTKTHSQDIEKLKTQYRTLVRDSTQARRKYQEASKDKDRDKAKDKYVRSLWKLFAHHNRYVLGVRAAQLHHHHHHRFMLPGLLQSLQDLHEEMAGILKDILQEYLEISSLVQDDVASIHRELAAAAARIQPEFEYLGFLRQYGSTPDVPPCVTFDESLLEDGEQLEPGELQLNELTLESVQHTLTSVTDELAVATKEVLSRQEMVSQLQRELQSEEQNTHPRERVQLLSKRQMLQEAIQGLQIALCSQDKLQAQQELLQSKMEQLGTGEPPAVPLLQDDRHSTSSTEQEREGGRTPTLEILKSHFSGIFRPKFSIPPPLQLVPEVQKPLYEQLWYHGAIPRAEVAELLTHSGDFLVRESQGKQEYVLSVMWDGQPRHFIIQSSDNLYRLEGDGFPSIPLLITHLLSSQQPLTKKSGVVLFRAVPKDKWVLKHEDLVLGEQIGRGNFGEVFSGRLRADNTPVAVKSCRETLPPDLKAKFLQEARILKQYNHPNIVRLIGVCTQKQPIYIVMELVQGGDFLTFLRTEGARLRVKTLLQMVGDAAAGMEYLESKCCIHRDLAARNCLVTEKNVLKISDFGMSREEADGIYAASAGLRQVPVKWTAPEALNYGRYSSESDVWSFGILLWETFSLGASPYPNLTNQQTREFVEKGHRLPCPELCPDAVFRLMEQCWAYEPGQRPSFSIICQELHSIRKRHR

B1: GST fusion protein containing the full length murine EPOR cytoplasmic domain (amino acids 257-483) (other, UniProt P14753 281-507, looked up)
chain: IWPGIPSPESEFEGLFTTHKGNFQLWLLQRDGCLWWSPGSSFPEDPPAHLEVLSEPRWAVTQAGDPGADDEGPLLEPVGSEHAQDTYLVLDKWLLPRTPCSENLSGPGGSVDPVTMDEASETSSCPSDLASKPRPEGTSPSSFEYTILDPSSQLLCPRALPPELPPTPPHLKYLYLVVSDSGISTDYSSGGSQGVHGDSSDGPYSHPYENSLVPDSEPLHPGYVACS
notes: range 257-483; Expressed in E. coli and immobilised on glutathione-sepharose; also called GST-EPOR fusion protein; fusion protein containing the complete cytoplasmic domain; not shown: amino-terminal glutathione-S-transferase (GST) domain encoded by pGEX-2T
no binding: all assays above
